These results are taken from patent US20030170895A1, “Methods of making hypermutable cells using PMSR homologs” (priority 2002, published 2003).

One data set deals with wild type yeast cell. The note with it: mutagen treatment; Boeke et al. 1984; cited from earlier work.
Data set [1] deals with Yeast cells that express hPMS2-R2. As to the kind of experiment: Chemical mutagen (EMS) plus MMR-defective yeast, ura mutant selection on 5-FOA plates. The data set is classed as cell-based. The note with it: EMS 0-200 pM, 30-120 minutes; PMS2-R2 cultures induced with methanol vs uninduced parental or wild type strain. The text has this: It has been previously documented that MMR deficiency yields to increased mutation frequency and increased resistance to toxic effects of chemical mutagens (CM) and their respective analogues such as but not limited to those as: ethidium bromide, EMS, MNNG, MNU, Tamoxifen, 8-Hydroxyguanine, as well as others listed but not limited to in publications by: Khromov-Borisov, N. N., et al. (1999) Mutat. Res. 430:55-74; Ohe, T. et al. (1999) Mutat. Res. 429:189-199; Hour, T. C. et al. (1999) Food Chem. Toxicol. 37:569-579; Hrelia, P. et al. (1999) Chem. Biol. Interact. 118:99-111; Garganta, F. et al. (1999) Environ. Mol. Mutagen. 33:75-85; Ukawa-Ishikawa S. et al. (1998) Mutat. Res. 412:99-107; www.ehs.utah.edu/ohh/mutagens; Marcelino, L. A. et al (1998) Cancer Res. 58(13):2857-2862; Koi, M. et al. (1994) Cancer Res. 54:4308-4312. Mismatch repair provokes chromosome aberrations in hamster cells treated with methylating agents or 6thioguanine, but not with ethylating agents.
Yeast cells that express hPMS2-R2 (induced or un-induced) and empty vector control cells are grown as described in Examples 5 and 6) and for 24 hours and diluted into MM medium as described above. Next, the cells in MM are incubated either with or without increasing amounts of ethyl methane sulfonate (EMS) from 0, 1, 10, 50, 100, and 200 pM. […] Mutants are selected and scored as above. […]

A further data set relates to 293 cells. As to the kind of experiment: β-galactosidase activity from MMR-sensitive pCAR-OF reporter. It counts as cell-based. The note with it: 293 cells expressing the homolog plus pCAR-OF reporter, grown 17 days; FIG. 5. The text has this: Cells in which MMR activity is decreased results in MI leading to insertion-deletion mutations within the β-galactosidase gene, a subset of which will restore the open reading frame (ORF) and produce functional enzyme. Cells are grow for 17 days and then harvested for protein lysates to measure β-galactosidase activity generated by each cell line. Cells in which a high rate of mutagenesis has occurred will produce β-galactosidase activity, while cells in which MMR activity is functional will retain background levels of enzymatic activity. Each cell line was tested in two independent experiments (experiment 1 and experiment 2). Extracts were incubated with a calorimetric galactose substrate for 1 hour. Enzyme activity as a function of substrate conversion was measured by optical density at 576 nm as described (Nicolaides, N. C. et al. (1998) Mol. Cell. Biol. 18:1635-1641). […] MI was monitored at the gene level to confirm that genetic alterations occurred within the polynucleotide repeat disrupting the β-galactosidase ORF.

The test system of data set [2] is Pichia pastoris yeast cells. In words: Generation of uracil requiring mutants, 5-FOA selection after methanol induction. The data set is classed as cell-based. The procedure: Pichia pastoris yeast cells were transformed with pPIC3.5K vector, pPIC3.5K-PMS134, and pPIC3.5K-hR2 as follows. First, 5 ml of YPD (1% yeast extract, 2% bacto-peptone, 1% dextrose) medium was inoculated with a single colony from a YPD plate (same as YPD liquid but add 2% Difco agar to plate) and incubated with shaking overnight at 30° C. The overnight culture was used to inoculate 500 ml of YPD medium (200 ul of overnight culture) and the culture incubated at 30° C. until the optical density at 600 nm reached 1.3 to 1.5. The cells were then spun down (4000×g for 10 minutes), and then washed 2 times in sterile water (one volume each time), then the cells suspended in 20 ml of 1 M sorbitol. The sorbitol/cell suspension was spun down (4,000×g for 10 minutes) and suspended in 1 ml of 1 M sorbitol. 80 ul of the cell suspension was mixed with 5 to 10 ug of linearized plasmid DNA and placed in a 0.2 cm cuvette, pulsed length 5 to 10 milliseconds at field strength of 7,500 V/cm. Next, the cells are diluted in 1 ml of 1 M sorbitol and transferred to a 15 ml tube and incubated at 30° C. for 1 to 2 hours without shaking. Next, the cells are spun out (4,000×G for 10 minutes) and suspended in 100 ul of sterile water, and 50 ul/plate spread onto the appropriate selective medium plate. The plates are incubated for 2 to 3 days at 30° C. and colonies patched out onto YPD plates for further testing. […]

Take `CCOS(C)(=O)=O` [EMS, ethyl methane sulfonate]: the “number of ura mutants” value in the data set with wild type yeast cell is on record as “low number of ura mutants”. The “frequency of ura mutants” value in data set [1] is given as “increase in the frequency of ura mutants”.

B1: PMSR2: human PMS2 related gene/protein, PMS2 homolog, dominant negative mismatch repair inhibitor (SEQ ID NO:17/18) (protein, listed as Homo sapiens)
chain: MAQPKQERVARARHQRSETARHQRSETAKTPTLGNRQTPTLGNRQTPRLGIHARPRRRATTSLLTLLLAFGKNAVRCALIGPGSLTSRTRPLTEPLGEKERREVFFPPRPERVEHNVESSRWEPRRRGACGSRGGNFPSPRGGSGVASLERAENSSTEPAKAIKPIDRKSVHQICSGPVVPSLRPNAVKELVENSLDAGATNVDLKLKDYGVDLIEVSGNGCGVEEENFEGFTLKHHTCKIQEFADLTQVETFGFRGEALSSLCALSDVTISTCRVSAKVGTRLVFDHYGKIIQKTPYPRPRGMTVSVKQLFSTLPVHHKEFQRNIKKKRACFPFAFCRDCQFPEASPAMLPVQPVELTPRSTPPHPCSLEDNVITVFSSVKNGPGSSR
For the molecule B1, the “microsatellite instability / β-galactosidase activity” value in the data set on 293 cells is listed as “high degree of MI leading to an increase in β-galactosidase activity”. Also, the “uracil requiring clones on 5-FOA selection medium” value in data set [2] (methanol induced culture) is “have clones that are capable of growth on the selection medium”. The “colonies resistant to 5-FOA” value in data set [2] (uninduced culture) is “does not have any colonies that are resistant to 5-FOA”.

B2: PMSR3: human PMS2 homolog, dominant negative mismatch repair inhibitor (SEQ ID NO:19/20) (protein, listed as Homo sapiens)
chain: MCPWRPRLGRRCMVSPREADLGPQKDTRLDLPRSPARAPREQNSLGEVDRRGPREQTRAPATAAPPRPLGSRGAEAAEPQEGLSATVSACFQEQQEMNTLQGPVSFKDVAVDFTQEEWRQLDPDEKIAYGDVMLENYSHLVSVGYDYHQAKHHHGVEVKEVEQGEEPWIMEGEFPCQHSPEPAKAIKPIDRKSVHQICSGPVVLSLSTAVKELVENSLDAGATNIDLKLKDYGVDLIEVSDNGCGVEEENFEGLISFSSETSHM
B2: the “microsatellite instability / β-galactosidase activity” value with 293 cells is listed as “high degree of MI leading to an increase in β-galactosidase activity”.
